According to US20240294622A1 (SUZHOU TRANSCENTA THERAPEUTICS, published 2024):

What was measured:
HGREM1-His (ACRO) [1] = molecular target: T1, HGREM1-His (ACRO) (human, UniProt O60565 25-184); assay: BLI Fortebio, human gremlin-his on NTA biosensor, antibody 100, 50, 25 nM
T1 construct: Lys25-Asp184 of NP_037504 with C-terminal polyhistidine tag (ACRO GR1-H52H3); they are put here; also called hGREM1 (ACRO); human gremlin (ACRO)
T1 sequence: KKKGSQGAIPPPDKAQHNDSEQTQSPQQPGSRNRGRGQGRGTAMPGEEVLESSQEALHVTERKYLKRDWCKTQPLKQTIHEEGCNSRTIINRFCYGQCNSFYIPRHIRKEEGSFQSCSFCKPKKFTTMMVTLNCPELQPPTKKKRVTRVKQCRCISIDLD
Method: The affinity of the humanized antibodies were also measured by Fortebio. Human gremlin protein was diluted with kinetics buffer to get a concentration of 2 μg/ml. 0 nM was used as a reference control. Antibodies to be tested were diluted with ForteBio kinetics buffer (PBS pH 7.4, 0.1% BSA+0.002% Tween-20) to a concentration of 100 nM, 50 nM, and 25 nM. Human gremlin-his was immobilized onto NTA biosensor. The baseline was detected for 60 seconds, and then anti-gremlin antibody association was detected for 120 seconds to get the Kₒₙ factor data. Followed by dissociation in kinetic buffer for 90 seconds to get the Koff factor data.

[2] = molecular target: T2, hGREM1 (source and construct not stated) (human, UniProt O60565 25-184); assay: ELISA on hGREM1
T2 construct: also called Gremlin; gremlin
T2 sequence: T1 sequence

HGREM1-His (ACRO) [3] = molecular target: T1, HGREM1-His (ACRO); assay: ELISA, binding to hGremlin-his
hGREM1 (Peprotech) [4] = molecular target: T3, hGREM1 (Peprotech) (human, UniProt O60565 25-184); assay: SPR Biacore T200, 25 C, hGREM1 (Peprotech) immobilized, antibody 12.5-400 nM
T3 construct: also called biotin-hGremlin
T3 sequence: T1 sequence
Method: (§1) HGREM1 (Peprotech) was immobilized on the Biacore sensor chip. Kinetic experiments were carried out using HBS-EP+ as both the running buffer and the sample buffer. […] Antibody-antigen association was monitored for 180 s while dissociation in buffer was monitored for 360 s. Kinetic analysis was performed using Biacore T200 evaluation software to determine Ka and Kd values. KD was calculated from the experimentally determined Ka and Kd values as KD=Kd/Ka.

hGREM1 (Peprotech) [5] = molecular target: T3, hGREM1 (Peprotech); assay: Biacore at 25 °C, Gremlin (Peprotech) on the chip, antibody as analyte
Method: as §1

HGREM1-His (ACRO) [6] = molecular target: T1, HGREM1-His (ACRO); assay: ELISA: antibody coated, Gremlin-his titrated, anti-his-HRP; the concentration is that of Gremlin-his
Method: (§2) Using a similar ELISA protocol mentioned above, binding of chimeric antibody 14E3 to XM5 or Gremlin were tested. […] The secondary antibody anti-his-HRP was used for detection.

XM5-his = molecular target: T4, XM5-his (human (hGREM1 with residues 123-143 …)); assay: ELISA: antibody coated, XM5-his supernatant titrated (axis: supernatant percentage, %), anti-his-HRP
T4 construct: Unpurified supernatant used; also called gremlin-DAN fusion protein XM5; chimeric hGREM1
T4 chain: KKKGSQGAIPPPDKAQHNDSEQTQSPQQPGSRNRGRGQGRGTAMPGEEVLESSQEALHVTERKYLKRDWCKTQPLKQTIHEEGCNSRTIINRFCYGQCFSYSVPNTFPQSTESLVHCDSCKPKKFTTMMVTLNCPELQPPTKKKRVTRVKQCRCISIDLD
Method: as §2

Gremlin-Fc [7] = molecular target: T5, Gremlin-Fc (human, UniProt O60565 25-184); assay: ELISA, coated BMP2 0.5 ug/ml
T5 construct: also called HGREM1-Fc (ACRO); wild-type gremlin-1
T5 sequence: T1 sequence
Method: (§3) Gremlin is known to be able to bind to BMP proteins and is validated by the present disclosure. Briefly, gremlin-Fc was tested for its binding ability to BMP 2/4/7 immobilized on plate. Briefly, plates were coated with […] of recombinant human BMP2, BMP4) (hBMP4, Peprotech) or human BMP7 (R&D) overnight and wild-type gremlin-1 was added to coated plates and allowed to incubate for an additional hour at RT. The plates were then washed and plate bound biotin-hGremlin was detected with neutravidin conjugated with HRP (thermo). Plates were then developed with a TMB solution and stopped by adding stop solution. The plates were read on a plate reader at 450 nm.

HGREM1-His (ACRO) [8] = molecular target: T1, HGREM1-His (ACRO); assay: ELISA: coated BMP2, gremlin titrated (sheet title: BMP2/4/7 binding to human gremlin-his)
Gremlin-Fc [9] = molecular target: T5, Gremlin-Fc; assay: ELISA, coated BMP4 0.5 ug/ml
Method: as §3

HGREM1-His (ACRO) [10] = molecular target: T1, HGREM1-His (ACRO); assay: ELISA: coated BMP4, gremlin titrated (sheet title: BMP2/4/7 binding to human gremlin-his)
Method: as §3

HGREM1-His (ACRO) [11] = molecular target: T1, HGREM1-His (ACRO); assay: ELISA, coated hGREM1 (ACRO)
Method: (§4) Clear polystyrene plates (BEAVER) were coated with 100 μl/well of a […] hGREM1 (ACRO) and mouse gremlin (R&D) in high pH coating buffer overnight at 4° C. Then the plates were washed once on an automatic plate washer using PBS+0.1% Tween 20 (Sigma). 100 μl of block solution consisting of PBS+1% BSA+1% normal goat serum+0.5% Tween 20 (Sigma) was added to each well and incubated at room temperature for 2 hours. Then 100 μl of antibodies in antibody dilution buffer containing PBS+1% BSA+1% normal goat serum+0.01% Tween 20 starting from 2 μg/ml and then serial dilutions were added to each well of the plate and incubated for 1 hours at room temperature. Afterward the plates were washed three times with 200 μl of PBS+0.1% Tween20 followed by adding 100 μl/well 1:10000 Goat anti mouse IgG-HRP (abcam), and incubate for 1 hour at room temperature. They were then washed 3× with PBS+0.1% Tween20. Finally, 100 µl/well of TMB (Pierce) was added to each well and after several minutes add 50 μl of stop solution to each well. The plates were read on a Multiscan FC microplate reader (Thermo Scientific) at […].

Mouse Gremlin-His (R&D) = molecular target: T6, Mouse Gremlin-His (R&D) (mouse, UniProt O70326 25-184); assay: ELISA on coated Mouse Gremlin-his, anti-mouse IgG-HRP
T6 construct: Lys25-Asp184 with 10xHis, R&D 956-GR; also called mouse gremlin (R&D); mGREM1
T6 sequence: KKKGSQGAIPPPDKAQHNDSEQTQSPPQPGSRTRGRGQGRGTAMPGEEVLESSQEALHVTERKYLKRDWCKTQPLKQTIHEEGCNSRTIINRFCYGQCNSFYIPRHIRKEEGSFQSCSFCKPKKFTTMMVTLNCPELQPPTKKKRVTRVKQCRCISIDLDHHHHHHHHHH
Method: as §4

HGREM1-His (ACRO) [12] = molecular target: T1, HGREM1-His (ACRO); assay: competition ELISA on captured human gremlin (Acro,0.5ug/ml), lower panel: hybridoma 22F1 titrated against a fixed amount of chimeric 14E3-C, bound chimeric antibody detected
Method: (§5) Epitope binning of anti-gremlin hybridoma antibodies were performed using a competition ELISA assay. Clear polystyrene plates (BEAVER) were coated with 100 μl/well of a 0.5 μg/ml hGREM1 (ACRO) in high pH coating buffer overnight at 4° C. Then the plates were washed once on an automatic plate washer using PBS+0.1% Tween 20 (Sigma). 100 μl of block solution consisting of PBS+1% BSA+1% normal goat serum+0.05% Tween 20 (Sigma) was added to each well and incubated at room temperature for 2 hours. Then 50 μl/well of 20 μg/ml saturated antibodies (hybridoma antibodies) in antibody dilution buffer (PBS+1% BSA+1% normal goat serum+0.01% Tween 20) were then added to each well of the plate and incubate for 1 hour. Then add 50 μl/well of 40 ng/ml competitive antibodies (chimeric antibodies, e.g., 14E3-C, 22F1-C, 56C11-C, and 69H5-C) to each well of the plate and incubate for another 1 hour at room temperature. […] The plates were read on a plate reader at 450 nm. The failure of the second antibody to bind in the presence of saturating quantities of the first antibody indicates the two antibodies were in the same epitope bin; the success of the second antibody to bind in the presence of the saturating quantities of the first antibody indicates the two antibodies were in different epitope bins. […]
(§6) The amount of chimeric antibody bound to gremlin were determined.

HGREM1-His (ACRO) [13] = molecular target: T1, HGREM1-His (ACRO); assay: competition ELISA on captured human gremlin (Acro,0.5ug/ml), lower panel: hybridoma 22F1 titrated against a fixed amount of chimeric 22F1-C, bound chimeric antibody detected
Method: as §5, §6

BMP2 with his-tag = molecular target: T7, BMP2 with his-tag (Homo sapiens (Human), UniProt P12643 283-396, Natural BMP2 is a disulfide-linked homodimer; one protomer is given. The his-tag is left out.); assay: ELISA: anti-human Fc coated, XM5-hFc supernatant (1:32) captured, his-tagged BMP2 titrated, anti-his-HRP
T7 construct: soluble his-tagged BMP used on captured XM5-Fc or Gremlin-Fc; also called BMPs (BMP2/4/7) with his-tag

BMP4 with his-tag = molecular target: T8, BMP4 with his-tag (Homo sapiens (Human), UniProt P12644 293-408, Natural BMP4 is a disulfide-linked homodimer; one protomer is given. The his-tag is left out.); assay: ELISA: anti-human Fc coated, XM5-hFc supernatant (1:32) captured, his-tagged BMP4 titrated, anti-his-HRP
T8 construct: also called BMPs (BMP2/4/7) with his-tag
T8 sequence: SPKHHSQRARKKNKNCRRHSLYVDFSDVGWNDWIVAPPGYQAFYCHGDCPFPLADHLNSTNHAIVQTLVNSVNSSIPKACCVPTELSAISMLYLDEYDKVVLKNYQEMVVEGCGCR

BMP7 with his-tag = molecular target: T9, BMP7 with his-tag (Homo sapiens (Human), UniProt P18075 293-431, Natural BMP7 is a disulfide-linked homodimer; one protomer is given. The his-tag is left out.); assay: ELISA: anti-human Fc coated, XM5-hFc supernatant (1:32) captured, his-tagged BMP7 titrated, anti-his-HRP
T9 construct: also called BMPs (BMP2/4/7) with his-tag
T9 sequence: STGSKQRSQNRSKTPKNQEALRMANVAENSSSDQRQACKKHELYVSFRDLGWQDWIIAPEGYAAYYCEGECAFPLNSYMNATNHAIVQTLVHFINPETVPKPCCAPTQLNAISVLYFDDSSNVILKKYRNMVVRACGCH

B1: humanized anti-gremlin1 antibody 14E3 (variant not stated) (antibody, V domains shown)
VH: QVQLVQSGSELKKPGASVKVSCKASGYTFTTYGMAWMRQAPGQGLEWMGWINTLSGEPTYADDFKGRFVFSLDTSVSTAYLQISSLKAEDTAVYYCAREPMDYWGQGTMVTVSS
VL: DVVMTQSPLSLPVTLGQPASISCKSSQSLLDSDGKTYLSWLQQRPGQSPRRLIYLVSKLDSGVPDRFSGSGSGTDFTLKISRVEAEDVGVYYCWQGAHFPLTFGQGTKLEIK
notes: also called Hu14E3; humanized 14E3
For B1, the Kd (HGREM1-His (ACRO) [1]) was < 1 nM.

B2: 14E3-C (chimeric antibody of 14E3) (antibody, V domains shown)
VH: QIQLVQSGPELKKPGETVKISCKTSGSTFTTYGMAWMKQAPGKGLTWMGWINTLSGEPTYADDFKGRFAFSLKTSANTAYLQINNLKNEDAATYFCAREPMDYWGQGTSVIVSS
VL: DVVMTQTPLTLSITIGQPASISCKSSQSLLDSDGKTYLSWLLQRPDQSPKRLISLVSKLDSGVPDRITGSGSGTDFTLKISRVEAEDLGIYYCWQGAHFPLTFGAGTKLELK
notes: also called chimeric 14E3; 14E3 hIgG1
With B2 the EC50 [2] was 0.00524 µg/mL, the EC50 (HGREM1-His (ACRO) [3]) was 0.0068 µg/mL and the Kd (hGREM1 (Peprotech) [4]) was 17.7 nM. For the same binder, the koff (hGREM1 (Peprotech) [5]) was 0.000882 s⁻¹, the kon (hGREM1 (Peprotech) [5]) was 49900 M⁻¹ s⁻¹ and the “EC50 (read off the curve)” value (HGREM1-His (ACRO) [6]) was ~0.01 µg/mL. B2: binds (XM5-his).

B3: recombinant human BMP2 (ligand, UniProt P12643 283-396, looked up)
chain: QAKHKQRKRLKSSCKRHPLYVDFSDVGWNDWIVAPPGYHAFYCHGECPFPLADHLNSTNHAIVQTLVNSVNSKIPKACCVPTELSAISMLYLDENEKVVLKNYQDMVVEGCGCR
notes: also called hBMP2
B3: binds (Gremlin-Fc [7]); binds (HGREM1-His (ACRO) [8]).

B4: recombinant human BMP4 (ligand, UniProt P12644 293-408, looked up)
chain: T8 sequence
notes: also called hBMP4
B4: binds (Gremlin-Fc [9]); binds (HGREM1-His (ACRO) [10]).

B5: 22F1 (antibody, V domains shown)
VH: EAQLQQSGPELVKPGASVKISCKASGYSFTDYYMNWLKQSHGKSLEWIGDINPKDGDSGYSHKFKGKATLTVDKSSSTAYMELRSLTSEDSAVYYCASGFTTVVARGDYWGQGTTLTVSS
VL: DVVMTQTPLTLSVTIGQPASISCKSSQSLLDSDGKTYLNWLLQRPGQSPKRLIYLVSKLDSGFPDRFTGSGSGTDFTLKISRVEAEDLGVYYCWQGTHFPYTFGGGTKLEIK
notes: mouse hybridoma antibody; also called hybridoma 22F1
In the case of B5, the EC50 (HGREM1-His (ACRO) [11]) is reported as 0.0141 µg/mL, the binding result (Mouse Gremlin-His (R&D)) is reported as “no binding” and the “IC50 (read off the curve)” value (HGREM1-His (ACRO) [12]) is reported as ~0.8 µg/mL. The “IC50 (read off the curve)” value (HGREM1-His (ACRO) [13]) was ~0.8 µg/mL.

B6: XM5-Fc (Fc fusion, not shown: a dimerising Fc or GST)
chain: T4 chain
notes: also called gremlin 1-DAN fusion protein
B6: no binding (tested: 2.00 ug/ml) (BMP2 with his-tag); no binding (tested: 2.00 ug/ml) (BMP4 with his-tag); no binding (tested: 2.00 ug/ml) (BMP7 with his-tag).
